In PMC6325061 one finds cells with paxillin clustering, cells with paxillin clusters and cells with paxillin clusters, HEK-293T stably expressing OptoIntegrin on PhyB (1–651)-coated glass, 1.5 h 660 nm then switched to 740 nm for 0.5 h data, which are given here for 1 substance.

The target in the experiment is phytochrome B (PhyB), amino acids 1-651, biotinylated (Arabidopsis thaliana) (UniProt P14713).
Sequence of UniProt P14713 (P14713 1-651): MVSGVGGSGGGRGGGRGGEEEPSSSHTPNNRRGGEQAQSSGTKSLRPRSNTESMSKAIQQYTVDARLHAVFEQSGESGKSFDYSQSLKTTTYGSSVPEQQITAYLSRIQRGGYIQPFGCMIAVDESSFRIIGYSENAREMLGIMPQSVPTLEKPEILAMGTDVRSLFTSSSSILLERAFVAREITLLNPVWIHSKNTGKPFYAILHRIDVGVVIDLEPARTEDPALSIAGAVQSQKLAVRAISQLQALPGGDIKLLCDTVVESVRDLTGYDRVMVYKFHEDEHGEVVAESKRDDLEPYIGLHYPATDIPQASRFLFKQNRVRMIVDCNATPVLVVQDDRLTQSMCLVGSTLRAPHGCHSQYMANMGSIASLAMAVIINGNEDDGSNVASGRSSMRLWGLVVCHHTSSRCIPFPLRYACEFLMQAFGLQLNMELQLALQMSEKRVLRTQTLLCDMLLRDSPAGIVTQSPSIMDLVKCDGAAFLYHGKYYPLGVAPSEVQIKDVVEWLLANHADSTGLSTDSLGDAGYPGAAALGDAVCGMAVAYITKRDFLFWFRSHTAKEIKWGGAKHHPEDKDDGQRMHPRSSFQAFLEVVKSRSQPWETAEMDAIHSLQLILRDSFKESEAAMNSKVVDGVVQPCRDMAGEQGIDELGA

As for “OptoIntegrin: human integrin αVβ3 with PIF^S inserted between Met180 and Lys181 of the β subunit (construct pJB005) (from UniProt Q8L5W7 1-100; P06756 31-1048) (receptor)”, the cells with paxillin clustering at the cellular periphery, HeLa stably expressing OptoIntegrin on PhyB (1–651)-coated glass, constant 660 nm light was 80 % of cells; the cells with paxillin clustering at the cellular periphery, HeLa stably expressing OptoIntegrin on PhyB (1–651)-coated glass, treated with far-red (740 nm) light is 20 % of cells; the cells with paxillin clusters at the edges, HEK-293T stably expressing OptoIntegrin on PhyB (1–651)-coated glass, constant 660 nm light was 55 % of cells; the cells with paxillin clusters, HEK-293T stably expressing OptoIntegrin on PhyB (1–651)-coated glass, 1.5 h 660 nm then switched to 740 nm for 0.5 h was 40 % of cells.
